# Assay results as given in PMC9709071.
# Where a chain is given by its changes, count along the chain named. Numbers in names are those of the source.
# B1: His-TL1A (TL1W2), O95150 C162S (protein)
# chain: MAEDLGLSFGETASVEMLPEHGSCRPKARSSSARWALTCCLVLLPFLAGLTTYLLVSQLRAQGEACVQFQALKGQEFAPSHQQVYAPLRADGDKPRAHLTVVRQTPTQHFKNQFPALHWEHELGLAFTKNRMNYTNKFLLIPESGDYFIYSQVTFRGMTSESSEIRQAGRPNKPDSITVVITKVTDSYPEPTQLLMGTKSVCEVGSNWFQPIYLGAMFSLQEGDKLMVNVSDISLVDYTKEDKTFFGAFLL
# B2: TL1A (TNFSF15): N133Q (protein)
# parent chain: B1 chain with S162C
# B3: His-TL1A (TL1W2), O95150 C202S (protein)
# chain: B1 chain with S162C, C202S
# B4: Recombinant DR3-Fc (Fc fusion)
# chain: QGGTRSPRCDCAGDFHKKIGLFCCRGCPAGHYLKAPCTEPCGNSTCLVCPQDTFLAWENHHNSECARCQACDEQASQVALENCSAVADTRCGCKPGWFVECQVSQCVSSSPFYCQPCLDCGALHRHTRLLCSRRDTDCGTCLPGFYEHGDGCVSCPTSTLGSCPERCAAVCGWRQ
# B5: His-TL1A (TL1W2), O95150 C162L; C202L (protein)
# chain: VYAPLRADGDKPRAHLTVVRQTPTQHFKNQFPALHWEHELGLAFTKNRMNYTNKFLLIPESGDYFIYSQVTFRGMTSELSEIRQAGRPNKPDSITVVITKVTDSYPEPTQLLMGTKSVLEVGSNWFQPIYLGAMFSLQEGDKLMVNVSDISLVDYTKEDKTFFGAFLL
# Experiments:
# [1] = target: T1, Recombinant DR3-Fc, Q93038; test: ELISA; details: chain shown with the change; value read at the highest DR3-Fc concentration point, about 1000 nM; parent: est. 130; read off a plot
# T1 chain: B4 chain
# [2] = glycan lost; control: wild type
# [3] = recombinant expression, Expi293; details: glycan lost; control: wild type
# [4] = target: Fc-His-TL1A (TL1W61) (human); test: ELISA; reversed format: TL1A molecules immobilised, DR3 titrated
Binder,response (x 10^6 chemiluminescence) [1],also measured
B1,10,–
B2,–,other: solubility [2]: no change; expression_or_secretion [3]: no change
B3,9,–
B4,–,EC50 [4]: 2.2 nM
B5,21,–
